Changes are numbered by the printed parent chain. Values belong to the binder of their own block, whether it stands above or below them.
Tests used:
[1] = biological target: T1, hFc-tagged human 4-1BB extracellular domain protein (4-1BB-hFc) (human, UniProt Q07011 24-186, limits assumed); test: ELISA, coated human 4-1BB-hFc; Ab 0.0006 ug/ml
T1 construct: also called immunogen A; 4-1BB^ECD-hFc; not shown: human IgG Fc fragment (hFc) of the pCpC vector
Protocol: (§1) The purified immunogen A (4-1BB-hFc), monkey 4-1BB-his, and mouse 4-1BB-his obtained in Example 1 [for the preparation method, see step 1 of Example 1, preparation of immunogen A], of which the extracellular domain of monkey-derived 4-1BB protein (purchased from ACRO biosystems), the extracellular domain of mouse 4-1BB protein (purchased from sino biological) or other immune detection point proteins respectively were diluted with PBS to a final concentration of 1.0 μg/mL, then added with […] per well to 96-well ELISA plate. It was sealed with plastic film and incubated at 4° C. overnight. The next day, the plate was washed twice with the plate-washing solution [PBS containing 0.01% (v/v) Tween20] and blocking solution [PBS containing 0.01% (v/v) Tween 20 and 1% (v/v) BSA] was added and blocked at room temperature for 2 hours. The blocking solution was discarded and 100 μl of the purified 4-1BB antibody obtained in Example 2 was added per well. After incubated at 37° C. for 2 hours, the plate was washed 3 times with a plate-washing solution [PBS containing 0.01% (v/v) Tween20]. A secondary antibody (purchased from Sigma) labeled with HRP (horseradish peroxidase) was added, and after incubated at 37° C. for 2 hours, the plate was washed 3 times with a plate-washing solution [PBS containing 0.01% (v/v) Tween20]. 100 μl of TMB substrate was added per well. After incubated for 30 minutes at room temperature, 100 μl of stop buffer (1.0N HCl) was added per well. The A450 nm values were read using an ELISA plate reader (SpectraMax 384plus, Molecular Device).

[2] = biological target: T2, monkey 4-1BB on CHOK1 cells (monkey); test: FACS, CHOK1-c4-1BB cells; Ab 0.016 ug/ml
T2 construct: whole, on cells; also called CHOK1-c4-1BB
Text: (§2) The pIRES plasmid carrying the full-length gene of monkey-derived […] (the preparation method is the same as the preparation method of the pCpC vector carrying the human-derived IgG Fc fragment (hFc) in “Preparation of immunogen A” of the step (1) in Example 1, in which the database accession number of the amino acid sequence of the extracellular region of monkey 4-1BB protein (Phe19-Thr239) is G7PSE7) was transfected into CHOK1 cell line to obtain CHOK1 stable transfected cell line containing monkey 4-1BB (herein referred to as CHOK1-c4-1BB stable cell line). The CHOK1-h4-1BB stable cell line and the CHOK1-c4-1BB stable cell line were expanded and cultivated to 90% confluence in T-75 cell culture flasks. The medium was exhausted, and washed twice with HBSS buffer (Hanks Balanced Salt Solution, purchased from Invitrogen), and then the cells were treated and collected with enzyme-free cell dissociation solution (Versene solution, purchased from Life Technology). The cells were washed twice with HBSS buffer, and after cell counting, the cells were diluted with HBSS buffer to 2×10⁶ cells per ml, and 1% goat serum blocking solution was added, the percentage being the mass percentage. It was incubated on ice for 30 minutes, and then washed twice with HBSS buffer by centrifugation. The collected cells were suspended in FACS buffer (HBSS containing 1% BSA, the percentage was the mass percentage) to 2×10⁶ cells/mL, and 100 μl per well was added to a 96-well FACS reaction plate. The purified 4-1BB antibody test sample obtained in Example 2 was added, 100 microliters per well and incubated on ice for 2 hours. […] It was washed three times with FACS buffer by centrifugation, and 100 μl of fixative [4% (v/v) paraformaldehyde] per well was added to suspend cells, and washed twice with FACS buffer after 10 minutes by centrifugation. The cells were suspended with 100 microliters of FACS buffer, and the results were detected and analyzed with FACS (FACS Calibur, purchased from BD).

[3] = biological target: T1, hFc-tagged human 4-1BB extracellular …; test: ELISA, coated human 4-1BB-hFc; Ab 0.4 ug/ml
Protocol: as §1

[4] = biological target: T3, human 4-1BB, full length, on transfected cells (human, UniProt Q07011 24-255); test: FACS, CHOK1-h4-1BB cells; Ab 0.00013 ug/ml
T3 construct: whole, on cells; also called CHOK1-h4-1BB
T3 sequence (Q07011 24-255): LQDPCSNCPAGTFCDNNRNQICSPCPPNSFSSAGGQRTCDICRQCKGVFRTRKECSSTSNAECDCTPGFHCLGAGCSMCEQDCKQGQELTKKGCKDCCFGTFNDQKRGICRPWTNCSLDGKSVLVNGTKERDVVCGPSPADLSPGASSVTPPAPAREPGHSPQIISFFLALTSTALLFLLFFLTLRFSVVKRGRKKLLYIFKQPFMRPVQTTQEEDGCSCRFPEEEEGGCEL
Text: as §2

[5] = biological target: T1, hFc-tagged human 4-1BB extracellular …; test: ELISA, coated human 4-1BB-hFc; Ab 0.0032 ug/ml
Protocol: as §1

[6] = biological target: T3, human 4-1BB, full length, on …; test: FACS, CHOK1-h4-1BB cells; Ab 0.08 ug/ml
Text: as §2

[7] = biological target: T2, monkey 4-1BB on CHOK1 cells; test: FACS, CHOK1-c4-1BB cells; Ab 0.0032 ug/ml
Text: as §2

[8] = biological target: T2, monkey 4-1BB on CHOK1 cells; test: FACS, CHOK1-c4-1BB cells; Ab 0.00064 ug/ml
Text: as §2

[9] = biological target: T1, hFc-tagged human 4-1BB extracellular …; test: ELISA, coated human 4-1BB-hFc; Ab 0.08 ug/ml
Protocol: as §1

[10] = biological target: T2, monkey 4-1BB on CHOK1 cells; test: FACS, CHOK1-c4-1BB cells; Ab 0.08 ug/ml
Text: as §2

[11] = biological target: T1, hFc-tagged human 4-1BB extracellular …; test: ELISA, coated human 4-1BB-hFc; Ab 0.0001 ug/ml
Protocol: as §1

[12] = biological target: T1, hFc-tagged human 4-1BB extracellular …; test: ELISA, coated human 4-1BB-hFc; Ab 2 ug/ml
Protocol: as §1

OD450 nm [1]: 0.19 OD450 nm
average fluorescence intensity [2]: 24.7 MFI
OD450 nm [3]: 3.58 OD450 nm
average fluorescence intensity [4]: 3.5 MFI
OD450 nm [5]: 0.49 OD450 nm
average fluorescence intensity [6]: 200 MFI
average fluorescence intensity [7]: 10.4 MFI
average fluorescence intensity [8]: 3.7 MFI
OD450 nm [9]: 3.27 OD450 nm
average fluorescence intensity [10]: 82.6 MFI
OD450 nm [11]: 0.15 OD450 nm
OD450 nm [12]: 3.59 OD450 nm
B1: 11H10C9 (antibody, V domains shown)
VH: QVQLVESGGGVVQPGRSLRLSCAASGFTFSSYAMHWVRQAPGKGLEWVAIIWYDGSNQYYADSVKGRFTISRDNSMNTLYLQMNSLRAEDTAVYYCARVEQWLVSYFDFWGQGTLVTVSS
VL: EIVMTQSPATLSVSPGERATLSCRASQSVSSNLAWYQQKPGQVPRLLIYGASTRATGIPARFSGSGSGTEFTLTISSLQSEDFAVYYCQQYNNWPTFGGGTKVEIK

OD450 nm [1]: 0.11 OD450 nm
average fluorescence intensity [2]: 47.2 MFI
OD450 nm [3]: 2.79 OD450 nm
average fluorescence intensity [4]: 4 MFI
OD450 nm [5]: 0.34 OD450 nm
average fluorescence intensity [6]: 453 MFI
average fluorescence intensity [7]: 14.1 MFI
average fluorescence intensity [8]: 5.3 MFI
OD450 nm [9]: 2.73 OD450 nm
average fluorescence intensity [10]: 179 MFI
OD450 nm [11]: 0.07 OD450 nm
OD450 nm [12]: 2.77 OD450 nm
B2: 289B6G6 (antibody, V domains shown)
VH: QVQLQESGPGLVRPSETLSLTCAVSGYSISSGYYWGWIRQPPGKGLEWIGSIFHSGNTYYNPSLKSRVIVSGDTSKNQFSLKLSSVTAADTAVYYCTRESSGFNVFDIWGQGTMVTVSS
VL: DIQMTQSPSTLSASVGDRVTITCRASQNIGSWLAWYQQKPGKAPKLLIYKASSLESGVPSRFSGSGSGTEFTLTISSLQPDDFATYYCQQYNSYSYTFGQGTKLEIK

OD450 nm [1]: 0.34 OD450 nm
average fluorescence intensity [2]: 41.2 MFI
OD450 nm [3]: 3.09 OD450 nm
average fluorescence intensity [4]: 4.8 MFI
OD450 nm [5]: 0.89 OD450 nm
average fluorescence intensity [6]: 410 MFI
average fluorescence intensity [7]: 13.7 MFI
average fluorescence intensity [8]: 4.5 MFI
OD450 nm [9]: 3.08 OD450 nm
average fluorescence intensity [10]: 130 MFI
OD450 nm [11]: 0.26 OD450 nm
OD450 nm [12]: 3.1 OD450 nm
B3: 52F4G2 (antibody, V domains shown)
VH: QVQLQESGPGLVKPSETLSLTCAVSGYSISSGYYWGWIRQPPGKGLEWIGSIFHSGSSYYNPSLKSRVTISVDTSKNQFSLKLRSVTAADTAVYYCARESSGWNCFDYWGQGTLVTVSS
VL: DIQMTQSPSTLSASVGDRVTITCRASQTISTWLAWYQQKPGKAPKLLIYKASNLESGVPSRFSGSGSGTEFTLTISSLQPDDFATYYCQQYNSYSITFGQGTRLEIK

OD450 nm [1]: 0.1 OD450 nm
average fluorescence intensity [2]: 34.2 MFI
OD450 nm [3]: 2.77 OD450 nm
average fluorescence intensity [4]: 4.6 MFI
OD450 nm [5]: 0.28 OD450 nm
average fluorescence intensity [6]: 399 MFI
average fluorescence intensity [7]: 10.8 MFI
average fluorescence intensity [8]: 4.7 MFI
OD450 nm [9]: 2.53 OD450 nm
average fluorescence intensity [10]: 154 MFI
OD450 nm [11]: 0.07 OD450 nm
OD450 nm [12]: 2.78 OD450 nm
B4: 23G3B8 (antibody, V domains shown)
VH: B3 VH with G26A, S58N, T74P, R84S, A88V, W103Y
VL: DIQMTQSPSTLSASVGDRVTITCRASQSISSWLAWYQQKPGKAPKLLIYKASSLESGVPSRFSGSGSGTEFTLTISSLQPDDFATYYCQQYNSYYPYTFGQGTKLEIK

OD450 nm [1]: 0.2 OD450 nm
average fluorescence intensity [2]: 16.7 MFI
OD450 nm [3]: 3.44 OD450 nm
average fluorescence intensity [4]: 13.8 MFI
OD450 nm [5]: 0.51 OD450 nm
average fluorescence intensity [6]: 172 MFI
average fluorescence intensity [7]: 6.6 MFI
average fluorescence intensity [8]: 71.7 MFI
OD450 nm [9]: 3.18 OD450 nm
average fluorescence intensity [10]: 47 MFI
OD450 nm [11]: 0.14 OD450 nm
OD450 nm [12]: 3.44 OD450 nm
B5: 172E3E3 (antibody, V domains shown)
VH: QVQLQESGPGLVKPSGTLSLTCAVSGGSISSSNWWSWVRQPPGKGLEWIGEIYHSGSTNYNPSLKSRVTISVDKSKNQLSLNLSSVTAADTAVYYCARQGGVAGTLYWYFDLWGRGTLVTVSS
VL: DIVMTQSPLSLPVTPGEPASISCRSSQGLLHSNGYNYLDWYLQKPGQSPQLLIYLGSNRASGVPDRFIGSGSGTDFTLKIRRVEAEDVGVYYCMQVLQTPWTFGQGTKVEIK

OD450 nm [1]: 0.44 OD450 nm
average fluorescence intensity [2]: 41.2 MFI
OD450 nm [3]: 2.73 OD450 nm
average fluorescence intensity [4]: 4.4 MFI
OD450 nm [5]: 0.54 OD450 nm
average fluorescence intensity [6]: 346 MFI
average fluorescence intensity [7]: 11.8 MFI
average fluorescence intensity [8]: 4.9 MFI
OD450 nm [9]: 2.26 OD450 nm
average fluorescence intensity [10]: 114 MFI
OD450 nm [11]: 0.43 OD450 nm
OD450 nm [12]: 2.72 OD450 nm
B6: 118F3A2 (antibody, V domains shown)
VH: QVQLQQWGAGLLKPSETLSLTCGVYGGSFSTNYWSWIRQSPGKGLEWIGEINHSGNTEYNPSLKSRLTISIDTSKNQFSLKLTSVTAADTAVYYCARMGYHSPSFDFWGQGVLVTVSS
VL: KIVMTQSPATLSVSPGERATLPCRVSQGIGSNLAWYQQKPGQAPRLLIYGASTRATGVPARFSGSGSGSEFTLTISSLQSEDLALYYCQQYNNWPLTFGGGTKVEIK

OD450 nm [1]: 0.19 OD450 nm
average fluorescence intensity [2]: 25.9 MFI
OD450 nm [3]: 3.5 OD450 nm
average fluorescence intensity [4]: 2.6 MFI
OD450 nm [5]: 0.48 OD450 nm
average fluorescence intensity [6]: 183 MFI
average fluorescence intensity [7]: 8.5 MFI
average fluorescence intensity [8]: 4 MFI
OD450 nm [9]: 3.24 OD450 nm
average fluorescence intensity [10]: 96.3 MFI
OD450 nm [11]: 0.13 OD450 nm
OD450 nm [12]: 3.49 OD450 nm
B7: 170D7F2 (antibody, V domains shown)
VH: QVQLVQSGAEVKKPGASVKVSCKASGYTFTSYDINWVRQATGQGLEWMGWMNPNSGNTGYAQKFQGRVTMTRNTSISTAYMELSSLRSEDTAVYYCARETGPFDYWGQGTLVTVSS
VL: DIQMTQSPSSLSASVGDRVTITCRASQRINNYLNWYQQKPGKAPKLLIYGASSLQSGVPSRFSGSGSGTDFTLTISSLQPEDFATYYCQQSYSTPFTFGPGTKVDIK

OD450 nm [1]: 0.18 OD450 nm
average fluorescence intensity [2]: 33.2 MFI
OD450 nm [3]: 3.56 OD450 nm
average fluorescence intensity [4]: 2.6 MFI
OD450 nm [5]: 0.38 OD450 nm
average fluorescence intensity [6]: 200 MFI
average fluorescence intensity [7]: 10.4 MFI
average fluorescence intensity [8]: 4.4 MFI
OD450 nm [9]: 3.29 OD450 nm
average fluorescence intensity [10]: 118 MFI
OD450 nm [11]: 0.13 OD450 nm
OD450 nm [12]: 3.54 OD450 nm
B8: 182A5B3 (antibody, V domains shown)
VH: B7 VH with A61V
VL: not shown

— US20200347144A1 (SHANGHAI HYAMAB BIOTECH, published 2020)
